Laboratory results from paper PMC9590138.

Target: recombinant soluble CD146 (UniProt P43121)
Assay: ELISA; in-house ELISA: binding of αvβ3 to rsCD146, dissociation constant estimated; methods in Additional file 1, not shown

**Q.** How did the Kd turn out when “integrin αvβ3 (protein used in the in-house ELISA) (from UniProt P06756 31-1048; P05106 27-788) (receptor)” was run?
**A.** 1.8 nM
